Experimental data: patent US20150175693A1 (UNIVERSIT TSKLINIKUM REGENSBURG, published 2015)

Molecular target: T1, IL-3 receptors on human basophils, pDC, monocytes and B cells (PBMC) (human, UniProt P26951 19-378; P32927 17-897)
T1 construct: whole, on cells; Natural receptor on primary human blood cells; the cells were sorted by CD123 and HLA-DR staining; also called CD123
Assay: flow cytometry, biotinylated hIL-3 on human PBMC, avidin-FITC
Experimental: Binding of IL-3 to human peripheral blood mononuclear cells (PBMC) was analysed using commerically available biotinylated IL-3. For the assay, biotinylated IL-3 was incubated with PBMC and binding detected via Avidin-Fluorescein (biotinylated hIL-3 and other reagents obtained from R&D Systems, Inc., Cat. No. NF300).
10 μl of the isolated and incubated PBMC cell preparation (10 Mio. cells/ml) were added to each of the preincubated IL-3/antibody or negative control samples and further incubated for 1 hour at 4° C. For the detection of IL-3 bound to PBMC, 10 μl avidin-FITC reagent together with anti-human CD123 PE-Cy5 (1:10) and anti-HLA-DR II APC (1:50) were added and the samples incubated for a further 30 min at 4° C. Cells were washed twice with 2 ml 1×RDF1 buffer and resuspended in 200 μl of this buffer per sample and FACS analysis performed. Basophils were identified by high expression of CD123 and absence of HLA-DR. Plasmacytoid dendritic cells (pDC) were identified by high expression of CD123 and HLA-DR. Monocytes and B cells were identified by light scatter properties and expression of HLA-DR.

T1 sequence (P26951 19-378, chain 1 of 2): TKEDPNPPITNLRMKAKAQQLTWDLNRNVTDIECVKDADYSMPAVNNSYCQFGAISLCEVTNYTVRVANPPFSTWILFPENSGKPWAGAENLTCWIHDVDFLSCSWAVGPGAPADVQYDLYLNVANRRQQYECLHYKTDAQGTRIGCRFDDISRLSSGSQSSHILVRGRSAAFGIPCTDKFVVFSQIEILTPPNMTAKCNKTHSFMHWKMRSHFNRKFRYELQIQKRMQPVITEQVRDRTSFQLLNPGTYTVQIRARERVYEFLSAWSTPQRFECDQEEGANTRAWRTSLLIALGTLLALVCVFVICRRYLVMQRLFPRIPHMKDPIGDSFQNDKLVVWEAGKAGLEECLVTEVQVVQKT
T1 sequence (P32927 17-897, chain 2 of 2): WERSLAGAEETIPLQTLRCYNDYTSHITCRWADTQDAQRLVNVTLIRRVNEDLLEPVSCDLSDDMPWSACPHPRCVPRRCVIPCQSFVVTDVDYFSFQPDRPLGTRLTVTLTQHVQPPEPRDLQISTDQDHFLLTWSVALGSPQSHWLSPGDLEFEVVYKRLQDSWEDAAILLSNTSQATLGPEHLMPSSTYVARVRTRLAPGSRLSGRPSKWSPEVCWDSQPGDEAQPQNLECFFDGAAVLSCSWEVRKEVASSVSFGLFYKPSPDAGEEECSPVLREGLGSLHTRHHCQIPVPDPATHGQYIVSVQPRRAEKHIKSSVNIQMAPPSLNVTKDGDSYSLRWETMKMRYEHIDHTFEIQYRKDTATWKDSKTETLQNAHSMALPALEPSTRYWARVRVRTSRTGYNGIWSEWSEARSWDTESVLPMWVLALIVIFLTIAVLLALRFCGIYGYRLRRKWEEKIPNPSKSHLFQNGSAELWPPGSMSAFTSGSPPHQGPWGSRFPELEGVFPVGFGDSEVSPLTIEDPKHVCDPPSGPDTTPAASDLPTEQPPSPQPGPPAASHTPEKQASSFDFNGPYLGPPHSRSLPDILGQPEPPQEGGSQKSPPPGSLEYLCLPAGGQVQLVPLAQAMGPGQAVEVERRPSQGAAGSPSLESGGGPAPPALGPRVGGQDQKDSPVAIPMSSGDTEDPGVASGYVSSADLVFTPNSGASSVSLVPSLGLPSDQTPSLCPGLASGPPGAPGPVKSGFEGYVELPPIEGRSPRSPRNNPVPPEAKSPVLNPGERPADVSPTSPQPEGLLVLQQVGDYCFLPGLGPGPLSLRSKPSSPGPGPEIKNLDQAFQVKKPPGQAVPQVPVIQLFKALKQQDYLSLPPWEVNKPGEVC

binding result: binds
B1: biotinylated hIL-3 (R&D Systems, Cat. No. NF300) (ligand)
chain: APMTQTTPLKTSWVNCSNMIDEIITHLKQPPLPLLDFNNLNGEDQDILMENNLRRPNLEAFNRAVKSLQNASAIESILKNLLPCLPLATAAPTRHPIHIKDGDWNEFRRKLTFYLKTLENAQAQQTTLSLAIF
modifications: biotinylated (sites not given)
notes: Bought reagent; also called biotinylated IL-3
